T1: CD95 (full-length protein, amino acids 1 to 335) fused C-terminally to mEGFP or mCherry (human (from the printed accession)), P25445
T1 chain: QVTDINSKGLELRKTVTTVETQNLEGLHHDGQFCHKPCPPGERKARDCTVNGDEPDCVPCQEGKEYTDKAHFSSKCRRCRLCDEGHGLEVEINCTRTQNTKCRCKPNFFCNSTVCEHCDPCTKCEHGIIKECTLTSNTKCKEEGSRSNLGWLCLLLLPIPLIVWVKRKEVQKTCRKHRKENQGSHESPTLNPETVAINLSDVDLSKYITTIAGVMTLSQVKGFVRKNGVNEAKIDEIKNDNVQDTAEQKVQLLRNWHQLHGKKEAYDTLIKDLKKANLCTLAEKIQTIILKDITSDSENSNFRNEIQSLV


Tests used:
[1] = target: CD95 (full-length protein, amino acids 1 to 335) fused C-terminally to mEGFP or mCherry (human (from the printed accession)) (UniProt P25445)
[2] = target: T1, CD95 (full-length protein, amino acids …); assay: FRET or BRET; CELFIS (FRET-FLIM, donor lifetime, x_FRET for each cell) in live HeLa CD95^KO cells with bicistronic mCherry/mEGFP plasmids; no ligand; evaluated from 30 up to 1000 receptors/μm^2; 37°C; conditions: remark: other sources report otherwise
[3] = target: T1, CD95 (full-length protein, amino acids …); assay: FRET or BRET; CELFIS (FRET-FLIM) in live HeLa CD95^KO cells with bicistronic mCherry/mEGFP plasmids; after addition of CD95L (200 ng/ml with enhancer); repeated measurements up to 6 hours; 37°C; conditions: remark: other sources report otherwise

Row | percentage of apoptotic cells (time-lapse microscopy, HeLa cells expressing CD95-mEGFP), CD95L 2 to 200 ng/ml (% apoptotic cells) [1] | dimer fraction [2] | monomer fraction [2] | oligomer fraction with CD95L [3] | oligomer fraction with CD95L, cells that did not show apoptosis, after 4 hours [3] | oligomer fraction with CD95L, cells that underwent apoptosis [3] | oligomer fraction with CD95L, just before apoptosis [3] | oligomerization rate with CD95L, cells that died (% oligomers/hour) [3] | oligomerization rate with CD95L, cells that stayed alive (% oligomers/hour) [3] | x FRET with CD95L [3] | Molecule
1 | 99 |  |  |  |  |  |  |  |  |  | FasL, soluble (human) (recombinant) (from UniProt P48023 130-281) (ligand)
2 |  | < 4% | 96% | < 21% | 12% | 18% | 15% | 6 | 2.3 | 12% | CD95 (full-length protein, amino acids 1 to 335) fused C-terminally to mEGFP or mCherry, P25445 26-335 (receptor) QVTDINSKGLELRKTVTTVETQNLEGLHHDGQFCHKPCPPGERKARDCTVNGDEPDCVPCQEGKEYTDKAHFSSKCRRCRLCDEGHGLEVEINCTRTQNTKCRCKPNFFCNSTVCEHCDPCTKCEHGIIKECTLTSNTKCKEEGSRSNLGWLCLLLLPIPLIVWVKRKEVQKTCRKHRKENQGSHESPTLNPETVAINLSDVDLSKYITTIAGVMTLSQVKGFVRKNGVNEAKIDEIKNDNVQDTAEQKVQLLRNWHQLHGKKEAYDTLIKDLKKANLCTLAEKIQTIILKDITSDSENSNFRNEIQSLV

From publication PMC11809610
